This is an account of results in CN113683686A (INST PASTEUR SHANGHAI CAS, dated 2021).

The target of experiment [1] is SARS-CoV-2 S蛋白 (on MLV-based SARS-CoV-2 pseudovirus) (SARS-CoV-2, UniProt P0DTC2 14-1273). The experiment can be described thus: cell-based or functional assay.
Experiment [2] has as its target 重组的SARS-CoV-2 RBD蛋白 (S蛋白320-550位残基, 组氨酸标签) (SARS-CoV-2, UniProt P0DTC2 320-550). Description: BLI (Octet RED96), His-tagged RBD on Ni-NTA sensor, antibody in solution.

B1: 单抗2H2 (anti-SARS-CoV-2 RBD mouse monoclonal antibody 2H2) (antibody, V domains shown)
VH: QVQLKQSGPSLVQPSQSLSITCTVSGFSLTSYGVHWVRQSPGKGLEWLGVMWRGGNTDYNAAFMSRLSITKDNSKSQVFFKMNSLQTDDTAIYYCAKNGGAHAMDFWGQGTSVTVSS
VL: NIVLTQSPASLAVSLGQRATISCRASESVDSYGNSFLHWYQQKPGQPPKLLIYLASNLESGVPARFSGSGSRTDFTLTIDPVEADDAATYYCQQNNEDPFTFGSGTKLEIK
Broadly, the Kd is a measure of binding affinity in units of concentration. Consider B1, for which the “半数抑制浓度(IC50), SARS-CoV-2假病毒中和试验 (VeroE6, luciferase)” value in experiment [1] amounted to 0.005 µg/mL. Binding in experiment [2] was characterised by a dissociation constant (Kd) of 7.5 nM.

B2: 单抗3C1 (anti-SARS-CoV-2 RBD mouse monoclonal antibody 3C1) (antibody, V domains shown)
VH: EVQLQESGPSLVKPSQTLSLTCSVTGDSITNGYWNWIRKFPGNKLEYMGYISYSGSTYYSPSLKSRISITRDTSKNQHYLQLNSVTSEDTATYYCASDYHGSKYYFDYWGQGTTLTVSS
VL: DIVMTQSHKFMSTSVGHRVSITCKASQDVGNDVAWYQQKPGQSPKLLIYWASTRHTGVPDRFTGSGSGTDFTLTISNVQSEDLADYFCQQYNRYPYTFGGGTKLEIK
Take B2: the “半数抑制浓度(IC50), SARS-CoV-2假病毒中和试验 (VeroE6, luciferase)” value in experiment [1] amounted to 1.91 µg/mL. The same molecule gave a Kd in experiment [2] of 13 nM.
